{"source": "patent US20240252617A1", "biological_target": "monomeric SARS-CoV-2 receptor binding domain (RBD) (SARS-CoV-2) (UniProt P0DTC2)", "data": [{"substance": "DH1047 antigen binding fragment (Fab)", "values": [{"measurement": "Kd", "value": "< 20", "unit": "pM"}]}]}
